{"source": "patent US6884879", "key": {"[1]": {"target": "T1, VEGF (human, UniProt P15692-4 27-191, limits assumed)", "T1 construct": "also called human VEGF; biotinylated VEGF", "assay": "competition ELISA: biotinylated VEGF preincubated with F(ab), capture on KDR-IgG", "method": "(§1) Diluted conditioned medium containing 3 ng/ml of KDR-IgG (Park et al., J. Biol. Chem. 269:25646–[…] (1994)) in blocking buffer were incubated on the plate for 1 h. […] The solutions from the tubes were then transferred to the ELISA plates and incubated for 1 h. […] Titration curves were fit with a four-parameter nonlinear regression curve-fitting program (KaleidaGraph, Synergy Software, Reading Pa.). […] Assays for full-length IgG were the same as for the F(ab)s except that the assay buffer contained 10% human serum."}, "[2]": {"target": "T1, VEGF", "assay": "competition ELISA (VEGF/KDR-IgG)", "method": "as §1"}, "[3]": {"target": "T2, VEGF121 (human, UniProt P15692-9 27-147)", "T2 construct": "also called Purified VEGF121", "T2 sequence (looked up)": "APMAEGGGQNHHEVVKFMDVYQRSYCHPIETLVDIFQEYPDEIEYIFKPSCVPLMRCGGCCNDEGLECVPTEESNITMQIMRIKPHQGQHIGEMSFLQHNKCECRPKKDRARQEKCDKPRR", "assay": "BIAcore SPR, VEGF121 immobilized, Fab in solution", "method": "(§2) Binding of humanized A4.6.1 Fab variants was measured by flowing solutions of Fab in PBS/0.05% TWEEN 20™ over the chip at a flow rate of 20 μL/min. Following each binding measurement, residual Fab was stripped from the immobilized ligand by washing with 5 μL of 50 mM aqueous HCl at 3 μL/min. Binding profiles were analyzed by nonlinear regression using a simple monovalent binding model (BIAevaluation software v2.0; Pharmacia)."}, "[4]": {"target": "T2, VEGF121", "assay": "BIAcore SPR, VEGF121 immobilized", "method": "as §2"}, "[5]": {"target": "T1, VEGF", "assay": "competition ELISA: biotinylated VEGF preincubated with IgG, capture on KDR-IgG, 10% human serum", "method": "as §1\n[c]murIgG1 is muMAbVEGF A461 purified from ascites."}, "[6]": {"target": "rhVEGF165 (human, UniProt P15692 27-191, limits assumed)", "assay": "cell-based or functional assay"}}}
{"binder": "F(ab)-4 (Fab, V domains shown, F(ab)-1 with ArgH71Leu and AsnH73Thr; human CL and CH1) VH: EVQLVESGGGLVQPGGSLRLSCAASGYTFTNYGMNWVRQAPGKGLEWVGWINTYTGEPTYAADFKRRFTISLDTSKNTLYLQMNSLRAEDTAVYYCARYPHYYGSSHWYFDVWGQGTLVTVSS VL: DIQMTQSPSSLSASVGDRVTITCSASQDISNYLNWYQQKPGKAPKLLIYFTSSLHSGVPSRFSGSGSGTDFTLTISSLQPEDFATYYCQQYSTVPWTFGQGTKVEIK", "values": [{"measurement": "EC50 F(ab)-X / EC50 chimeric F(ab)", "setting": "[1]", "value": "> 295", "unit": "ratio"}, {"measurement": "fold improvement of binding against F(ab)-1", "setting": "[2]", "value": 4, "unit": "fold"}]}
{"binder": "hu2.10 (Fab, V domains shown, Phage-selected consensus clone, tested as soluble Fab; also called consensus clone hu2.10) VH: EVQLVESGGGLVQPGGSLRLSCAASGYTFTNYGMNWIRQAPGKGLEWVGWINTYTGEPTYAADFKRRFTISLDTSASTVYLQMNSLRAEDTAVYYCAKYPHYYGSSHWYFDVWGQGTLVTVSS VL: DIQMTQSPSSLSASVGDRVTITCSASQDISNYLNWYQQKPGKAPKLLIYFTSSLHSGVPSRFSGSGSGTDYTLTISSLQPEDFATYYCQQYSTVPWTFGQGTKVEIK", "values": [{"measurement": "KD(A4.6.1)/KD(mut) as headed; fold weaker than the A4.6.1 chimera", "setting": "[3]", "value": 35, "unit": "ratio"}]}
{"binder": "F(ab)-3 (Fab, V domains shown) VH: EIQLVQSGPELKQPGETVRISCKASGYTFTNYGMNWVKQAPGKGLKWMGWINTYTGEPTYAADFKRRFTFSLETSASTAYLQISNLKNDDTATYFCAKYPHYYGSSHWYFDVWGAGTTVTVSS VL: DIQMTQSPSSLSASVGDRVTITCSASQDISNYLNWYQQKPGKAPKLLIYFTSSLHSGVPSRFSGSGSGTDFTLTISSLQPEDFATYYCQQYSTVPWTFGQGTKVEIK", "values": [{"measurement": "EC50 F(ab)-X / EC50 chimeric F(ab)", "setting": "[1]", "value": 2.6, "unit": "ratio"}]}
{"binder": "hu2.10V (Fab, V domains shown, hu2.10 with Leu to Val at VL 46; soluble Fab) VH: EVQLVESGGGLVQPGGSLRLSCAASGYTFTNYGMNWIRQAPGKGLEWVGWINTYTGEPTYAADFKRRFTISLDTSASTVYLQMNSLRAEDTAVYYCAKYPHYYGSSHWYFDVWGQGTLVTVSS VL: DIQMTQSPSSLSASVGDRVTITCSASQDISNYLNWYQQKPGKAPKVLIYFTSSLHSGVPSRFSGSGSGTDYTLTISSLQPEDFATYYCQQYSTVPWTFGQGTKVEIK", "values": [{"measurement": "KD(A4.6.1)/KD(mut) as headed; fold weaker than the A4.6.1 chimera", "setting": "[3]", "value": 5.8, "unit": "ratio"}, {"measurement": "fold improvement of KD against hu2.10", "setting": "[4]", "value": 6, "unit": "fold"}]}
{"binder": "chimeric IgG1 (antibody, V domains shown, Murine A4.6.1 VL and VH fused to human kappa CL and human IgG1 heavy chain constant domains; also called chIgG1; chlgG1) VH: EIQLVQSGPELKQPGETVRISCKASGYTFTNYGMNWVKQAPGKGLKWMGWINTYTGEPTYAADFKRRFTFSLETSASTAYLQISNLKNDDTATYFCAKYPHYYGSSHWYFDVWGAGTTVTVSS VL: DIQMTQTTSSLSASLGDRVIISCSASQDISNYLNWYQQKPDGTVKVLIYFTSSLHSGVPSRFSGSGSGTDYSLTISNLEPEDIATYYCQQYSTVPWTFGGGTKLEIKR", "values": [{"measurement": "IgG1/chlgG1 (ratio of EC50)", "setting": "[5]", "value": 1, "unit": "ratio"}]}
{"binder": "muMAb VEGF A.4.6.1 (antibody, V domains shown, Original murine IgG1 purified from ascites; also called murIgG1; murlgG1) VH: EIQLVQSGPELKQPGETVRISCKASGYTFTNYGMNWVKQAPGKGLKWMGWINTYTGEPTYAADFKRRFTFSLETSASTAYLQISNLKNDDTATYFCAKYPHYYGSSHWYFDVWGAGTTVTVSS VL: DIQMTQTTSSLSASLGDRVIISCSASQDISNYLNWYQQKPDGTVKVLIYFTSSLHSGVPSRFSGSGSGTDYSLTISNLEPEDIATYYCQQYSTVPWTFGGGTKLEIKR", "values": [{"measurement": "IgG1/chlgG1 (ratio of EC50)", "setting": "[5]", "value": 0.759, "unit": "ratio"}]}
{"binder": "Y0313-1 (Fab, V domains shown) VH: EVQLVESGGGLVQPGGSLRLSCAASGYDFTHYGMNWVRQAPGKGLEWVGWINTYTGEPTYAADFKRRFTFSLDTSKSTAYLQMNSLRAEDTAVYYCAKYPYYYGTSHWYFDVWGQGTL VL: DIQLTQSPSSLSASVGDRVTITCRANEQLSNYLNWYQQKPGKAPKVLIYFTSSLHSGVPSRFSGSGSGTDFTLTISSLQPEDFATYYCQQYSTVPWTFGQGTKVEIKR", "values": [{"measurement": "potency in the HuVEC assay against the wild-type Fab (Y0192)", "setting": "[6]", "value": 30, "unit": "fold"}]}
